In paper PMC13214397, “De novo biosynthesis of alpinetin enhanced by directed evolution of 5-O-methyltransferase” (Microbial Cell Factories, 2026):

B1: StrAOMT (Streptomyces avermitilis MA-4680 = NBRC 14893) (protein)
chain: MSESQQLWDDVDDYFTTLLAPEDEALTAALRDSDAAGLPHINVAPNQGKLLQLLAEIQGARRILEIGTLGGYSTIWLGRALPRDGRLISFEYDAKHAEVARRNLARAGLDGISEVRVGPALESLPKLADERPEPFDLVFIDADKVNNPHYVEWALKLTRPGSLIVVDNVVRGGGVTDAGSTDPSVRGTRSALELIAEHPKLSGTAVQTVGSKGYDGFALARVLP
notes: recombinant from pET21b in E. coli BL21(DE3), codon-optimized
B2: StrAOMT (Streptomyces avermitilis MA-4680 = NBRC 14893; I41L/K212R/R171W) (protein)
chain: MSESQQLWDDVDDYFTTLLAPEDEALTAALRDSDAAGLPHLNVAPNQGKLLQLLAEIQGARRILEIGTLGGYSTIWLGRALPRDGRLISFEYDAKHAEVARRNLARAGLDGISEVRVGPALESLPKLADERPEPFDLVFIDADKVNNPHYVEWALKLTRPGSLIVVDNVVWGGGVTDAGSTDPSVRGTRSALELIAEHPKLSGTAVQTVGSRGYDGFALARVLP
notes: as for B1

How the values were obtained:
[1] = substrate: O=C1C[C@@H](c2ccccc2)Oc2cc(O)cc(O)c21; test: initial rates of alpinetin formation by HPLC, Michaelis-Menten fit; assay type: biochemical, Streptomyces avermitilis; details: 2 mM SAM (fixed), 2 mM Mg2+, 50 uM enzyme, Tris-HCl pH 7.5, 37 °C, apparent initial velocities
Description: initial rates of alpinetin formation by HPLC, Michaelis-Menten fit on StrAOMT | we performed steady-state kinetic assays for StrAOMT wild-type and StrAOMT I41L/R171W/K212R

[2] = substrate: O=C1C[C@@H](c2ccccc2)Oc2cc(O)cc(O)c21; test: as above; assay type: biochemical, Streptomyces avermitilis; details: 2 mM SAM (fixed), 2 mM Mg2+, 50 uM enzyme, Tris-HCl pH 7.5, 37 °C, apparent initial velocities; remark: listed apart in the source
Description: initial rates of alpinetin formation by HPLC, Michaelis-Menten fit on StrAOMT | KM of StrAOMT wild type is twice that of the StrAOMT triple mutant

Protein | Km [1] [µM] | kcat [1] [s⁻¹] | Km [2] [µM] | kcat [2] [s⁻¹]
B1 | 313.2 | 2.83e-05 |  | 
B2 |  |  | 156.4 | 9.33e-05
